{
  "source": "patent US8697366",
  "about": "(SEOUL NATIONAL UNIVERSITY INDUSTRY FOUNDATION, dated 2014)",
  "key": {"β-catenin [1]": {"target": "T1, β-catenin (UniProt P35222 1-781)", "T1 sequence (looked up)": "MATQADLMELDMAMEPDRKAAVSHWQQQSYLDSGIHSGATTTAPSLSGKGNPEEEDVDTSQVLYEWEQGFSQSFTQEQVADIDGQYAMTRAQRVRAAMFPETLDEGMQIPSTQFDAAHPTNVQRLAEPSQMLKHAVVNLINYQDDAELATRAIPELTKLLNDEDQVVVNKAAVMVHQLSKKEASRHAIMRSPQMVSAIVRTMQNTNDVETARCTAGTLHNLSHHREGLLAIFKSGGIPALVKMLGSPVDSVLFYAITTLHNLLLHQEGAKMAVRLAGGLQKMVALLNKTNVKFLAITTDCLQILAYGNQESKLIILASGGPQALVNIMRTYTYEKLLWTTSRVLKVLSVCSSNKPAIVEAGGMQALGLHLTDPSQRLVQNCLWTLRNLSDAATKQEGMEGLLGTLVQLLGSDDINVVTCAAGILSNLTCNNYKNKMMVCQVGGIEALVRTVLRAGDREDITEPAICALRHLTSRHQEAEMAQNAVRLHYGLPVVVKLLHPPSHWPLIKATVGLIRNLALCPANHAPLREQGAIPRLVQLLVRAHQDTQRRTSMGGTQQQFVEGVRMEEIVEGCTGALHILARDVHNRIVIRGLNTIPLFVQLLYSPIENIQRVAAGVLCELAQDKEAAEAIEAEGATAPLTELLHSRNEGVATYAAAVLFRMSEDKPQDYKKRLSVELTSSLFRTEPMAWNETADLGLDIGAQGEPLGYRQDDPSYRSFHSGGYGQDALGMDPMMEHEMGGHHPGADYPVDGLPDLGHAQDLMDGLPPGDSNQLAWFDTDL", "assay": "anti-Flag M2 affinity purification from HEK293 extracts, LC-MS/MS and immunoblot of eluates", "protocol": "FIG. 1. Purification of RORα-containing complex and identification of β-catenin as a binding partner (A) RORα-containing complex was purified from extracts obtained from HEK293 cells stably expressing Flag-tagged RORα. As a negative control, a mock purification from HEK293 cells stably expressing an empty vector was performed. The bound proteins were resolved by SDS-PAGE and prepared for LC-MS/MS analysis. […] (C) β-catenin and GRIP1 were detected from the elutes by immunoblot analysis. (D) Coimmunoprecipitation of endogenous RORα with β-catenin in HEK293 cells. (E) Ni+-NTA-agarose pulldown assay was performed with plasmids expressing each GFP-tagged β-catenin deletion construct and HisMax-RORα. (F) Illustration of the structure of various β-catenin deletion constructs and binding to RORα.\nPurification of RORα-Containing Complex and Identification of β-Catenin as a Binding Partner To investigate the as-yet-unidentified functional modules of RORα, we used a Flag epitope-tag strategy to purify RORα-containing complexes. We generated cell lines that stably express Flag-tagged RORα, and incubated the extracts in anti-Flag M2 affinity gel. After washing with buffer containing increasing salt concentrations of up to 500 mM, the proteins retained on the affinity chromatography column were eluted with buffer containing Flag peptide. […]"}, "PKCδ": {"target": "PKCδ (UniProt Q05655 1-676)", "sequence (Q05655 whole entry, stated change not applied)": "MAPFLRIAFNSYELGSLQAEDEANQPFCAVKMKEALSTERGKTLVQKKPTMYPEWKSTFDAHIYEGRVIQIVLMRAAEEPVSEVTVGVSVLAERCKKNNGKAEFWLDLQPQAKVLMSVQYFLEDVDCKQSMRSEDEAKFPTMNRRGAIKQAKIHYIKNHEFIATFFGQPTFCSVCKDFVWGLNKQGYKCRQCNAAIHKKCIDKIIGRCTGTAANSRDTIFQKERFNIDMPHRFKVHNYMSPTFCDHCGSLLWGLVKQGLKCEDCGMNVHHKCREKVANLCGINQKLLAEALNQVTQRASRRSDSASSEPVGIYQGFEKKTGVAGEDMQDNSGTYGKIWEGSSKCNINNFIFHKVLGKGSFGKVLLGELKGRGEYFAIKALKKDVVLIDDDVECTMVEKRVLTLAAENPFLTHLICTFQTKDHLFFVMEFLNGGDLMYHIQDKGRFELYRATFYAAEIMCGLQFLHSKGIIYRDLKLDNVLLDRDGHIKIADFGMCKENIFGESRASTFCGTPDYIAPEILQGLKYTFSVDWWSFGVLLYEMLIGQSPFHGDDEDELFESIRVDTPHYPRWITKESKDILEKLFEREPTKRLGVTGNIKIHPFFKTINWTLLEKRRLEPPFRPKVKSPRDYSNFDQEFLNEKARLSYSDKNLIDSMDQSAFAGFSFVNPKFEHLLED", "assay": "in vivo coimmunoprecipitation"}, "PKCε": {"target": "T2, PKCε (UniProt Q02156 1-737)", "T2 sequence (looked up)": "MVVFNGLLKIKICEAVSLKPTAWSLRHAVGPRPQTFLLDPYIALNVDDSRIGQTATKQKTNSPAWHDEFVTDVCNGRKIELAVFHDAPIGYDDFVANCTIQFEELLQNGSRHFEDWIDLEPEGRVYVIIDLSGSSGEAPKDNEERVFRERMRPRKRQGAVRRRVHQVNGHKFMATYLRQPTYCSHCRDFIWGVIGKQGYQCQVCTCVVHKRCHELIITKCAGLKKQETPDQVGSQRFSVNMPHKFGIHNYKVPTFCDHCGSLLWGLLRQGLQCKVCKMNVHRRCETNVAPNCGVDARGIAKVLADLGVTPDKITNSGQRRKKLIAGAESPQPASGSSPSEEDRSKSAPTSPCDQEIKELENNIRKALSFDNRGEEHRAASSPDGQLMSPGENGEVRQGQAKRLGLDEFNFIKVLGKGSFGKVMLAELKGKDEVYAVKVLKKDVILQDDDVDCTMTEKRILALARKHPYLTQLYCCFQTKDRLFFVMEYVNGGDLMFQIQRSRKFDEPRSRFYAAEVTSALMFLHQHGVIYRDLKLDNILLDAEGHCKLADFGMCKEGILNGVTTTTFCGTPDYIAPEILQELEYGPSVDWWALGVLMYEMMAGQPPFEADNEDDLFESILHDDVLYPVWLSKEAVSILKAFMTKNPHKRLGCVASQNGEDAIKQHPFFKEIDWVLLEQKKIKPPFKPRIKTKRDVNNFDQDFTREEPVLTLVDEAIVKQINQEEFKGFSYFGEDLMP", "assay": "in vivo coimmunoprecipitation"}, "PKCη": {"target": "PKCη (UniProt P24723 1-683)", "sequence (P24723 whole entry)": "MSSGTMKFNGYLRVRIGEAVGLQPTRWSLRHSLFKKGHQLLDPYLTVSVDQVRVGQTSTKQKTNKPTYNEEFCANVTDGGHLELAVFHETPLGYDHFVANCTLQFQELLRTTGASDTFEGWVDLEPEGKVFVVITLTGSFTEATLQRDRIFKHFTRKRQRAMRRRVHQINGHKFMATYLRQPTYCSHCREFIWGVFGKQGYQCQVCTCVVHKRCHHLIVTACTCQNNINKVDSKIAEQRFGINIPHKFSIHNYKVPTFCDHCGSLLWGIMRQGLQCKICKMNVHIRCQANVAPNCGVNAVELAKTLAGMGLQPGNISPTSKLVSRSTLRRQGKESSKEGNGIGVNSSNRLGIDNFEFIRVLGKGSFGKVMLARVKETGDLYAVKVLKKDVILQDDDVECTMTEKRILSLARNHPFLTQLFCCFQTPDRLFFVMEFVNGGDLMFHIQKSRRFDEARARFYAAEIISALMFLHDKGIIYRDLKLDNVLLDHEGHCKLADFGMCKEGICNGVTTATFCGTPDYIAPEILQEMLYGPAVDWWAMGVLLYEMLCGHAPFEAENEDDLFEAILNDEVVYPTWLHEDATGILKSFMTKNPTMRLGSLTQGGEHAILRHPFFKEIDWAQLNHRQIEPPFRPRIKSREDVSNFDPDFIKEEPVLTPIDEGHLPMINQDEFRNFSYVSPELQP", "assay": "in vivo coimmunoprecipitation"}, "PKCβ2": {"target": "PKCβ2 (UniProt P05771-2 1-673)", "sequence (P05771 other isoform, or with tags, fused parts or gaps)": "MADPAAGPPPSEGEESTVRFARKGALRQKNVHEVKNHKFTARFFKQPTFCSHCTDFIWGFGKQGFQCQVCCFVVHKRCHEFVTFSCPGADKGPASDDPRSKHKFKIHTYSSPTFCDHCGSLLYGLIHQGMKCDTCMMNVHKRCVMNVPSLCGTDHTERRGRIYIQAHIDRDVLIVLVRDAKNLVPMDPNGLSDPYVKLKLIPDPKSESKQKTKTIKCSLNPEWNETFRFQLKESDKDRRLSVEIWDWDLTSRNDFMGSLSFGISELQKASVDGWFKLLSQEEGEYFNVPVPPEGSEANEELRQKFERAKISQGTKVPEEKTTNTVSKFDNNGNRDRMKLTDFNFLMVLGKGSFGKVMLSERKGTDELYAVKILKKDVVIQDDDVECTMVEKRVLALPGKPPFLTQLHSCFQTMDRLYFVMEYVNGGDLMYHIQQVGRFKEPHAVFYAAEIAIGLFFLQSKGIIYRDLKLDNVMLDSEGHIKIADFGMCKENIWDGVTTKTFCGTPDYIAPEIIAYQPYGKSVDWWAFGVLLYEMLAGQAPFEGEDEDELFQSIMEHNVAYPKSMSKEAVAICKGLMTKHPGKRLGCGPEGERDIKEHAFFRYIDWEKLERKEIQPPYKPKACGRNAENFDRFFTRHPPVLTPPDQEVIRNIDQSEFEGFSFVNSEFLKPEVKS", "assay": "in vivo coimmunoprecipitation"}, "β-catenin [2]": {"target": "T1, β-catenin", "assay": "co-IP with anti-Flag antibody from HCT116 cells, immunoblot for β-catenin", "protocol": "FIG. 4. PKCα-dependent phosphorylation of RORα is crucial for downregulation of Wnt/β-catenin target genes (A) The specificity of the antibody raised against phosphorylated RORαS35 peptide (SEQ ID NO:18) was assessed by dot blot analysis. (B) Treatment of TPA increased phophorylated RORα on S35 site as assessed by immunoprecipitation with anti-phospho-RORαS35 antibody. […] (D) Treatment of Go6976, a PKCα inhibitor, abolished TPA-dependent phosphorylation of RORα as assessed by immonoblotting with anti-phospho-RORαS35 antibody. (E) HCT116 cells were transfected with Flag-RORα WT, S35D, or S35A, and the cell extracts were immunoprecipitated with anti-Flag antibody followed by immunoblotting against anti-β-catenin antibody. (F) Coimmunoprecipitation assay of β-catenin with either RORαWT or S35A in HCT116 cells after treatment with TPA in the absence or presence of Go6976. (G) ChIP analysis on the cyclin D1 promoter after transfection with Flag-RORαWT, S35A, or S35D in HCT116 cells. (H) ChIP analysis on the cyclin D1 promoter in HCT116 cells after TPA treatment for indicated time. […] (J) Real-time quantitative RT-PCR analysis of the cyclin D1 transcript in HCT116 cells in the presence of TPA for indicated time. (K) Knockdown effect of siRNA against RORα or PKCα was assessed in the expression of the cyclin D1 transcript in HCT116 cells. […]"}},
  "data": [
    {"binder": "Flag-tagged RORα (receptor, UniProt P35398 1-523, looked up, also called Flag-RORα; Flag-RORα WT; not shown: Flag tag) MESAPAAPDPAASEPGSSGADAAAGSRETPLNQESARKSEPPAPVRRQSYSSTSRGISVTKKTHTSQIEIIPCKICGDKSSGIHYGVITCEGCKGFFRRSQQSNATYSCPRQKNCLIDRTSRNRCQHCRLQKCLAVGMSRDAVKFGRMSKKQRDSLYAEVQKHRMQQQQRDHQQQPGEAEPLTPTYNISANGLTELHDDLSNYIDGHTPEGSKADSAVSSFYLDIQPSPDQSGLDINGIKPEPICDYTPASGFFPYCSFTNGETSPTVSMAELEHLAQNISKSHLETCQYLREELQQITWQTFLQEEIENYQNKQREVMWQLCAIKITEAIQYVVEFAKRIDGFMELCQNDQIVLLKAGSLEVVFIRMCRAFDSQNNTVYFDGKYASPDVFKSLGCEDFISFVFEFGKSLCSMHLTEDEIALFSAFVLMSADRSWLQEKVKIEKLQQKIQLALQHVLQKNHREDGILTKLICKVSTLRALCGRHTEKLMAFKAIYPDIVRLHFPPLYKELFTSEFEPAMQIDG", "values": [
      {"measurement": "binding result", "setting": "β-catenin [1]", "result": "binds"}
    ]},
    {"binder": "RORα (receptor, UniProt P35398 1-523, looked up, also called retinoic acid-related orphan nuclear receptor (ROR)α; endogenous RORα) MESAPAAPDPAASEPGSSGADAAAGSRETPLNQESARKSEPPAPVRRQSYSSTSRGISVTKKTHTSQIEIIPCKICGDKSSGIHYGVITCEGCKGFFRRSQQSNATYSCPRQKNCLIDRTSRNRCQHCRLQKCLAVGMSRDAVKFGRMSKKQRDSLYAEVQKHRMQQQQRDHQQQPGEAEPLTPTYNISANGLTELHDDLSNYIDGHTPEGSKADSAVSSFYLDIQPSPDQSGLDINGIKPEPICDYTPASGFFPYCSFTNGETSPTVSMAELEHLAQNISKSHLETCQYLREELQQITWQTFLQEEIENYQNKQREVMWQLCAIKITEAIQYVVEFAKRIDGFMELCQNDQIVLLKAGSLEVVFIRMCRAFDSQNNTVYFDGKYASPDVFKSLGCEDFISFVFEFGKSLCSMHLTEDEIALFSAFVLMSADRSWLQEKVKIEKLQQKIQLALQHVLQKNHREDGILTKLICKVSTLRALCGRHTEKLMAFKAIYPDIVRLHFPPLYKELFTSEFEPAMQIDG", "values": [
      {"measurement": "binding result", "setting": "PKCδ", "result": "no binding"},
      {"measurement": "binding result", "setting": "PKCε", "result": "no binding"},
      {"measurement": "binding result", "setting": "PKCη", "result": "no binding"},
      {"measurement": "binding result", "setting": "PKCβ2", "result": "no binding"}
    ]},
    {"binder": "Flag-RORα S35D (receptor, UniProt P35398 1-523, looked up, not shown: Flag tag) MESAPAAPDPAASEPGSSGADAAAGSRETPLNQEDARKSEPPAPVRRQSYSSTSRGISVTKKTHTSQIEIIPCKICGDKSSGIHYGVITCEGCKGFFRRSQQSNATYSCPRQKNCLIDRTSRNRCQHCRLQKCLAVGMSRDAVKFGRMSKKQRDSLYAEVQKHRMQQQQRDHQQQPGEAEPLTPTYNISANGLTELHDDLSNYIDGHTPEGSKADSAVSSFYLDIQPSPDQSGLDINGIKPEPICDYTPASGFFPYCSFTNGETSPTVSMAELEHLAQNISKSHLETCQYLREELQQITWQTFLQEEIENYQNKQREVMWQLCAIKITEAIQYVVEFAKRIDGFMELCQNDQIVLLKAGSLEVVFIRMCRAFDSQNNTVYFDGKYASPDVFKSLGCEDFISFVFEFGKSLCSMHLTEDEIALFSAFVLMSADRSWLQEKVKIEKLQQKIQLALQHVLQKNHREDGILTKLICKVSTLRALCGRHTEKLMAFKAIYPDIVRLHFPPLYKELFTSEFEPAMQIDG", "values": [
      {"measurement": "binding result", "setting": "β-catenin [2]", "result": "binds"}
    ]},
    {"binder": "Flag-RORα DBD mutant (C90A) (receptor, UniProt P35398 1-523, looked up, also called RORαC90A; not shown: Flag tag) MESAPAAPDPAASEPGSSGADAAAGSRETPLNQESARKSEPPAPVRRQSYSSTSRGISVTKKTHTSQIEIIPCKICGDKSSGIHYGVITAEGCKGFFRRSQQSNATYSCPRQKNCLIDRTSRNRCQHCRLQKCLAVGMSRDAVKFGRMSKKQRDSLYAEVQKHRMQQQQRDHQQQPGEAEPLTPTYNISANGLTELHDDLSNYIDGHTPEGSKADSAVSSFYLDIQPSPDQSGLDINGIKPEPICDYTPASGFFPYCSFTNGETSPTVSMAELEHLAQNISKSHLETCQYLREELQQITWQTFLQEEIENYQNKQREVMWQLCAIKITEAIQYVVEFAKRIDGFMELCQNDQIVLLKAGSLEVVFIRMCRAFDSQNNTVYFDGKYASPDVFKSLGCEDFISFVFEFGKSLCSMHLTEDEIALFSAFVLMSADRSWLQEKVKIEKLQQKIQLALQHVLQKNHREDGILTKLICKVSTLRALCGRHTEKLMAFKAIYPDIVRLHFPPLYKELFTSEFEPAMQIDG", "values": [
      {"measurement": "binding result", "setting": "β-catenin [2]", "result": "binds"}
    ]}
  ]
}
